Results from patent publication US20250230236A1 (SINGAPORE HEALTH SERVICES PTE, published 2025).

Biological target: T1, GRP78 (UniProt P11021 19-654)
T1 construct: Endogenous protein of PC-9 cells
Assay: cross-immunoprecipitation
Method: FIGS. 6A-6B show A) immunoprecipitation with GR 6A04. Boxed area was excised for mass spectrometry. B) Mass spectrometry analysis of excised region identified the top 5 putative antigens after removal of non-specific hits found in the same region in the Column Control lane. […] The antigen identity was then validated by a pull-down with commercial antibodies against the target, and a cross-probe of the immunoprecipitated products with GR 6A04, and vice-versa. GRP78 was tested by cross-IP and ruled out as possible antigen for GR 6A04.
Immunoprecipitation (IP) was conducted using the automated Phynexus MEA system (Phynexus Inc., USA). GR6A04 was captured onto Protein G PhyTip columns containing 5 ul of resin bed. The column was then washed with PBS to remove unbound proteins, and PC-9 membrane protein extract was introduced to bind to GR6A04 that has been captured on the column. The column was then washed with Wash Buffer II (140 mM NaCl, pH7.4) before elution at low pH with Elution Buffer (200 mM NaH2PO4/140 mM NaCl pH 2.5) and neutralized immediately with 1 M Tris-Cl pH 9.0. The IP product is then subjected to analysis by Western blot.

T1 sequence (P11021 19-654 limits assumed): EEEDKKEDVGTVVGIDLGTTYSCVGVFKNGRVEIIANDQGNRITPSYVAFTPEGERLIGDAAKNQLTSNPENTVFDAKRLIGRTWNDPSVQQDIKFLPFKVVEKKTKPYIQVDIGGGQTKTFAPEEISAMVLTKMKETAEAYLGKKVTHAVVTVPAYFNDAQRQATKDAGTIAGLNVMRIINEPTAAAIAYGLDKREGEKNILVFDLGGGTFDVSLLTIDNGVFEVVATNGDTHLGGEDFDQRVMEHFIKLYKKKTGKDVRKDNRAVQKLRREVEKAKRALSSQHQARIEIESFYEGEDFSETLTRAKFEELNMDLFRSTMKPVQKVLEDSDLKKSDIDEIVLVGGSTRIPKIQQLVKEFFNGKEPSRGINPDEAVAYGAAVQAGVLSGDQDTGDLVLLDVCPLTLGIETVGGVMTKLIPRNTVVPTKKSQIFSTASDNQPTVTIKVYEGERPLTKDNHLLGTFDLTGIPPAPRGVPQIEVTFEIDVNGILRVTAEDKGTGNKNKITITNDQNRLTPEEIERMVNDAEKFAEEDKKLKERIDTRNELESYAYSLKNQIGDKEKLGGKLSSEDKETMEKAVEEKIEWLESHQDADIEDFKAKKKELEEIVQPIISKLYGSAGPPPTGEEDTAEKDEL

binding result: no binding
B1: GR6A04 monoclonal antibody (antibody, mouse IgG1, V domains shown)
VH: SGPELVKPGASVKMSCKASGNTFTSYVMHWVKQKPGQGLEWIGYINPYNDGTKYNEKFKGKATLTSDKSSSTAYMELSSLTSEDSAVYYCARSTARATPYFYAMDYWGQGTSVTVSS
VL: DILMTQSPSSLAVTAGEKVTMRCKSSQSLLWSVNQNSYLSWYQLKQGQPPKLLLYGASIRESWVPDRFTGSGSGTDFTLTISNVHVEDLAVYYCQHNHGSFLPYTFGGGTKLEIK
notes: also called mAb GR 6A04
